Our source for the ratio of HSlo in β-catenin immunoprecipitates, wild type HSlo to HSloΔS10 (fold (wild type over HSloΔS10)) values is PMC3237428.

In the assay the target is β-catenin (endogenous in HEK293 cells) (human (endogenous in HEK293)) (UniProt P35222). Kind of assay: co-IP; reciprocal immunoprecipitation from stable HEK cell lysates with protein A/G agarose, anti-β-catenin antibody or rabbit antibody BsloC; western blot; 0.5% DDM.
Chain of UniProt P35222 (P35222 whole entry): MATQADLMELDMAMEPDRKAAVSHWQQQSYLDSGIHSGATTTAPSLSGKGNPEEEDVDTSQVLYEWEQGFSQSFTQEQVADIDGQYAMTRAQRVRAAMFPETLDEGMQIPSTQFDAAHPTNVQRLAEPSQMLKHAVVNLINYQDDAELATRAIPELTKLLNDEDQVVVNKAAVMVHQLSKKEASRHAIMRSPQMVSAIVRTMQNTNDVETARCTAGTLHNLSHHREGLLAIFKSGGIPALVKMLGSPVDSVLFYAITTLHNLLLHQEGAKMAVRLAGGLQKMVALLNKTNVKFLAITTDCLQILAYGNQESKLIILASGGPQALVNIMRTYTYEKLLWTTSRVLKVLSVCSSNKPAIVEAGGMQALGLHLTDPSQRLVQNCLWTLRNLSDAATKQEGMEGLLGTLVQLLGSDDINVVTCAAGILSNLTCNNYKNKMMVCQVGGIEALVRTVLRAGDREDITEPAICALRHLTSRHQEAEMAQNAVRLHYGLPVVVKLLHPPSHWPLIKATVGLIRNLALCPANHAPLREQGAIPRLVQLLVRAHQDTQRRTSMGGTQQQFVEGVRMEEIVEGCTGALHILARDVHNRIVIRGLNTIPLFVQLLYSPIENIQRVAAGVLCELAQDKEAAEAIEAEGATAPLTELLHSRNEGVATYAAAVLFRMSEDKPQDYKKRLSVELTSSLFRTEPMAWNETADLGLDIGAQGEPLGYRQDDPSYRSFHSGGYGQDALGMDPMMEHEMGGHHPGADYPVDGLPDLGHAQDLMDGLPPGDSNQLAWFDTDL

Regarding “HSloΔS10 (HSlo deletion construct lacking the S10 region) (natural protein)”, the ratio of HSlo in β-catenin immunoprecipitates, wild type HSlo to HSloΔS10 (fold (wild type over HSloΔS10)) is 4.
